Tests used:
[1] = Stir-induced aggregation (solubility) assay; type: physicochemical; settings: 40 μg/mL, pH 7.4, stirred 400 rpm
Method: Solubility/physical stability of human BMP7 protein and human BMP7 protein variants may be measured in a stir-induced aggregation assay. Proteins are diluted to 40 μg/mL with assay buffer (50 mM sodium phosphate, 150 mM NaCl, pH 7.4) to a total volume of 2 mL. This solution may be put in a 7 mL glass vial containing one ‘flea’ stir bar and stirred at 400-rpm at room temperature. At periodic intervals (typically 0, 30, 60, 90, 120, and 150 minutes) a 150 μL aliquot may be withdrawn and centrifuged for 2 minutes at 16,000×g in a 1.5 mL tube. The supernatant (120 μL) may be transferred to an HPLC vial and the amount of remaining protein may be determined by reversed-phase HPLC under the following conditions: Zorbax C8 SB-300® column (3.5 micron, 4.6×50 mm), mobile phase: A buffer=0.1% TFA (v/v) in water, B buffer=0.085% TFA (v/v) in acetonitrile; flow rate at 1 mL/minute; column heated to 60° C.; autosampler cooled to 10° C., 214 nm UV detection, 80 μL injection, and 20 minute run time using the linear gradient indicated below. From the HPLC chromatograms (not shown) the protein peak or peaks (e.g., mature and pro domains) are integrated and percent change from initial peak area may be calculated.

Follistatin = molecular target: T1, Follistatin (Homo sapiens, UniProt P19883); assay: BMP inhibitor activity, hepcidin promoter luciferase: Follistatin; type: cell-based
T1 construct: made in house
T1 sequence (P19883 30-344, species assumed): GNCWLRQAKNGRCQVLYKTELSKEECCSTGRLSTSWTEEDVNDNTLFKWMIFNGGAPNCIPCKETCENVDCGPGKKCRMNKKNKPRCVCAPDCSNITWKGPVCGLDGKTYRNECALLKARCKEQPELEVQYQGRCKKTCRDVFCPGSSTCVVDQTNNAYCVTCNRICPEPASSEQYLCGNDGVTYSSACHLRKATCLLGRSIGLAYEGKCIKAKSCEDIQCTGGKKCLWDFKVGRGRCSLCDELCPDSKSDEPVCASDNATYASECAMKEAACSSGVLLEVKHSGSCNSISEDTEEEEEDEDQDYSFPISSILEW
Method: (§1) Briefly described, Hep3B2 cells stably transfected with a hepcidin promoter luciferase construct (hereinafter, referred to as Hep3B2_HepPro_luc cells) were used for BMP inhibitor experiments. Hep3B2_HepPro_luc cells may be plated at 30,000 cells per well in a tissue culture treated 96 well plate in DMEM (Hyclone) 5% FBS (Gibco) supplemented with non-essential amino acids (Hyclone) and 200 μg/ml gentecin (Hyclone) for 24 hours. Cells were then starved in OMEM+0.2% BSA for 5 hours. Cells were treated with a mixture of human BMP7 proteins and variants thereof in OMEM (Gibco)+0.2% BSA (Gibco) for 18 hours then developed for luciferase activity utilizing Luciferase reporter Gene Assay Kit (Roche). BMP7 proteins were added at concentrations in the linear range of the assay, at 1 nM and 100 pM. Inhibitors were added at various concentrations in molar excess of the particular BMP7 protein being tested. All BMP inhibitors except Follistatin were purchased from R&D Systems. Follistatin and BMP7 proteins and variants thereof were generated at Eli Lilly and Company.

Chordin-like 2 = molecular target: T2, Chordin-like 2 (Homo sapiens, UniProt Q6WN34); assay: BMP inhibitor activity, hepcidin promoter luciferase: Chordin-like 2; type: cell-based
T2 construct: purchased R&D Systems
T2 sequence (Q6WN34 26-429): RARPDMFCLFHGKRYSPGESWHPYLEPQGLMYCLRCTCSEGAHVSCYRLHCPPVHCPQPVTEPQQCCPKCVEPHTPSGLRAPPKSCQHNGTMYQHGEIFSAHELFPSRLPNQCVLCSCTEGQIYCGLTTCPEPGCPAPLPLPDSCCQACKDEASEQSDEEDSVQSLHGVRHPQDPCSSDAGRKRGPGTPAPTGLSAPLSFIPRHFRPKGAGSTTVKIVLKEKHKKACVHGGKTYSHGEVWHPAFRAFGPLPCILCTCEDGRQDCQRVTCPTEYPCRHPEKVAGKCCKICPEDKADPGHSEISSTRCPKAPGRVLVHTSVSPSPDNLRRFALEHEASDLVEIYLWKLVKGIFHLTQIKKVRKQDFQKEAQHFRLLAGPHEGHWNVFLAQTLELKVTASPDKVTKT
Method: as §1

Noggin = molecular target: T3, Noggin (Homo sapiens, UniProt Q13253); assay: BMP inhibitor activity, hepcidin promoter luciferase: Noggin; type: cell-based
T3 construct: purchased R&D Systems
T3 sequence (Q13253 28-232): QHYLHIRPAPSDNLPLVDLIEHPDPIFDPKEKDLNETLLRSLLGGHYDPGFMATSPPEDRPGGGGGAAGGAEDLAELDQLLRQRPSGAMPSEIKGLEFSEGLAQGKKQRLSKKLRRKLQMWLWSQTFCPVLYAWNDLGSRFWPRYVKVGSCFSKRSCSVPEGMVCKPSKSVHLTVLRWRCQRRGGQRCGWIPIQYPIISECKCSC
Method: as §1

Chordin = assay: BMP inhibitor activity, hepcidin promoter luciferase: Chordin; type: cell-based
Method: as §1

Coco = molecular target: T4, Coco (Homo sapiens, UniProt Q8N907); assay: BMP inhibitor activity, hepcidin promoter luciferase: Coco; type: cell-based
T4 construct: purchased R&D Systems
T4 sequence (Q8N907 23-189): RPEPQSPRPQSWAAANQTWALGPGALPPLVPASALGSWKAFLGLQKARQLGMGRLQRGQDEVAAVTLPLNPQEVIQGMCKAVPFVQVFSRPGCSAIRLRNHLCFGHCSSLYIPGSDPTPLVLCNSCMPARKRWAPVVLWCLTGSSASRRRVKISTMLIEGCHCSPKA
Method: as §1

[2] = molar excess 100X, Hep3B2_HepPro_luc cells, 18 hours
[3] = Chordin-like 2, molar excess 0.1X
[4] = Chordin-like 2, molar excess 1X
[5] = Chordin-like 2, molar excess 10X
[6] = Chordin-like 2, molar excess 100X, Hep3B2_HepPro_luc cells, 18 hours

## Wild type human pro-BMP7: homodimers of wild type human mature BMP7 in a non-covalent complex with wild type human pro-domain [reference compound]
[1]; 0 minutes
  Percent of Material Precipitated: 0%
[1]; 30 minutes
  Percent of Material Precipitated: 8%
[1]; 60 minutes
  Percent of Material Precipitated: 42%
[1]; 90 minutes
  Percent of Material Precipitated: 51%
[1]; 120 minutes
  Percent of Material Precipitated: 65%
[1]; 150 minutes
  Percent of Material Precipitated: 72%
Follistatin; molar excess 0.1X
  % inhibition: −10.4%
Follistatin; molar excess 1X
  % inhibition: 5.9%
Follistatin; molar excess 10X
  % inhibition: 29.5%
Follistatin; [2]
  % inhibition: 79.8%
Chordin-like 2; [3]
  % inhibition: 8.9%
Chordin-like 2; [4]
  % inhibition: 55.9%
Chordin-like 2; [5]
  % inhibition: 87.5%
Chordin-like 2; [6]
  % inhibition: 88.2%
Noggin; molar excess 0.1X
  % inhibition: −5.3%
Noggin; molar excess 1X
  % inhibition: 24.8%
Noggin; molar excess 10X
  % inhibition: 84.8%
Noggin; [2]
  % inhibition: 87.3%
Chordin; molar excess 0.1X
  % inhibition: −15.1%
Chordin; molar excess 1X
  % inhibition: −2.2%
Chordin; molar excess 10X
  % inhibition: 18.9%
Chordin; [2]
  % inhibition: 76.5%
Coco; molar excess 0.1X
  % inhibition: −10.2%
Coco; molar excess 1X
  % inhibition: 4.0%
Coco; molar excess 10X
  % inhibition: 17.4%
Coco; [2]
  % inhibition: 81.6%

B1: Human mature BMP7 protein variant F9 (SEQ ID NO: 8): homodimer wherein each monomeric subunit has SEQ ID NO: 8 (Y65G/I86L/F93V/N110G/Y128W), disulfide linked (protein)
chain: STGSKQRSQNRSKTPKNQEALRMANVAENSSSDQRQACKKHELYVSFRDLGWQDWIIAPEGYAAGYCEGECAFPLNSYMNATNHALVQTLVHVINPETVPKPCCAPTQLGAISVLYFDDSSNVILKKWRNMVVRACGCH
modifications: homodimer, disulfide linked
[1]; 0 minutes
  Percent of Material Precipitated: 0%
[1]; 30 minutes
  Percent of Material Precipitated: 7%
[1]; 60 minutes
  Percent of Material Precipitated: 23%
[1]; 90 minutes
  Percent of Material Precipitated: 24%
[1]; 120 minutes
  Percent of Material Precipitated: 37%
[1]; 150 minutes
  Percent of Material Precipitated: 39%
Follistatin; molar excess 0.01X
  % inhibition: 3.9%
Follistatin; molar excess 0.1X
  % inhibition: 10.6%
Follistatin; molar excess 1X
  % inhibition: 10.0%
Follistatin; molar excess 10X
  % inhibition: 23.8%
Chordin-like 2; Chordin-like 2, molar excess 0.01X
  % inhibition: −1.5%
Chordin-like 2; [3]
  % inhibition: −3.2%
Chordin-like 2; [4]
  % inhibition: −1.0%
Chordin-like 2; [5]
  % inhibition: 9.0%
Noggin; molar excess 0.01X
  % inhibition: −2.6%
Noggin; molar excess 0.1X
  % inhibition: −7.2%
Noggin; molar excess 1X
  % inhibition: −6.9%
Noggin; molar excess 10X
  % inhibition: −1.2%
Chordin; molar excess 0.01X
  % inhibition: 3.7%
Chordin; molar excess 0.1X
  % inhibition: 6.8%
Chordin; molar excess 1X
  % inhibition: 5.2%
Chordin; molar excess 10X
  % inhibition: 5.6%
Coco; molar excess 0.01X
  % inhibition: 2.3%
Coco; molar excess 0.1X
  % inhibition: 7.0%
Coco; molar excess 1X
  % inhibition: 7.3%
Coco; molar excess 10X
  % inhibition: 28.5%

B2: Wild type human mature BMP7 (SEQ ID NO: 2): dimer of two glycosylated, 139 amino acid disulfide-linked proteins of about 35 kDa, SEQ ID NO: 2 (protein, listed as Homo sapiens)
chain: STGSKQRSQNRSKTPKNQEALRMANVAENSSSDQRQACKKHELYVSFRDLGWQDWIIAPEGYAAYYCEGECAFPLNSYMNATNHAIVQTLVHFINPETVPKPCCAPTQLNAISVLYFDDSSNVILKKYRNMVVRACGCH
modifications: disulfide-linked glycosylated homodimer
[1]; 0 minutes
  Percent of Material Precipitated: 100%
[1]; 30 minutes
  Percent of Material Precipitated: 100%
[1]; 60 minutes
  Percent of Material Precipitated: 100%
[1]; 90 minutes
  Percent of Material Precipitated: 100%
[1]; 120 minutes
  Percent of Material Precipitated: 100%
[1]; 150 minutes
  Percent of Material Precipitated: 100%
Follistatin; molar excess 0.1X
  % inhibition: −16.6%
Follistatin; molar excess 1X
  % inhibition: −11.9%
Follistatin; molar excess 10X
  % inhibition: 21.1%
Follistatin; [2]
  % inhibition: 54.7%
Chordin-like 2; [3]
  % inhibition: −13.7%
Chordin-like 2; [4]
  % inhibition: 49.0%
Chordin-like 2; [5]
  % inhibition: 69.5%
Chordin-like 2; [6]
  % inhibition: 71.9%
Noggin; molar excess 0.1X
  % inhibition: −12.2%
Noggin; molar excess 1X
  % inhibition: 36.7%
Noggin; molar excess 10X
  % inhibition: 72.8%
Noggin; [2]
  % inhibition: 73.7%
Chordin; molar excess 0.1X
  % inhibition: −13.1%
Chordin; molar excess 1X
  % inhibition: −9.2%
Chordin; molar excess 10X
  % inhibition: 21.3%
Chordin; [2]
  % inhibition: 70.9%
Coco; molar excess 0.1X
  % inhibition: −23.6%
Coco; molar excess 1X
  % inhibition: −25.9%
Coco; molar excess 10X
  % inhibition: 37.6%
Coco; [2]
  % inhibition: 77.4%

Reference: patent US11466066B2, “Variants of human BMP7 protein” (ELI LILLY AND COMPANY, priority 2017, dated 2022)
